Results taken from patent publication US8420776B2, “Ube2G2 binding domain in the ubiquitin ligase gp78 and methods of use thereof” (The United States of America, as Represented by the …, priority 2004, dated 2013).

Legend:
Format in all cases: cell-based
Myc-Ube2G2 = target: T1, Myc-Ube2G2 (Mus musculus, UniProt P60605); assay: Co-immunoprecipitation with co-expressed Myc-Ube2G2 in cells; details: anti-Myc IP, anti-gp78 IB; MG132 8 hr
T1 construct: expressed in transfected cells; host or cells: HEK 293T
T1 sequence (P60605 1-165): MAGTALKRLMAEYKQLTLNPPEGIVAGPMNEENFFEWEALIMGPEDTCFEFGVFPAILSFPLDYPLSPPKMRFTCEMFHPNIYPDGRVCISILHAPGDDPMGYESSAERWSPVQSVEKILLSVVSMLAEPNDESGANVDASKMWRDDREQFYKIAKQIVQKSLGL
Procedure: (§1) Transfections of HT1080, NIH 3T3 and HEK 293T cells were carried out ˜24 hr after plating using Polyfect (Qiagen, Valencia, Calif.) and cells harvested after ˜48 hr. J558 cells were transfected by electroporation using Bio-rad GENE pulser II at settings of 250 v, 950uF. Vector without insert was used to equalize total plasmid. In most experiments 0.15 μg of pEGFP-C1 served as an internal control. For experiments not involving immunoprecipitation, 6×10^5 cells were plated in 6 well plates and cell lysis was with Mammalian Protein Extraction Reagent (Pierce). For immunoprecipitation, 2.4×10^6 cells were seeded in 100 mm dishes and cells were lysed in RIPA buffer (1×PBS, 1% Nonidet P40. 0.5% sodium deoxycholate, 0.1% SDS). Lysis buffers were supplemented with Protease Inhibitor Cocktail (Sigma) and 10 mM iodoacetamide. Supernatants were analyzed after a 10,000×g centrifugation using standard techniques for immunoprecipitation, SDS-PAGE, immunoblotting and ECL. Treatment of cells with MG132 (Sigma) was at 50 μM for eight hr. Cycloheximnide was used at 50 μg/ml. All cells were collected at the end of the six hr chase.
FIG. 5 depicts the results of immunoprecipitation of Ube2G2 (MmUbc7) from HEK 293T cells co-transfected with a plasmid encoding myc-tagged MmUbc7/Ube2G2 together with s plasmid encoding various forms of gp78. HEK 293T cells were transfected with a plasmid encoding myc-tagged MmUbc7/Ube2G2 together with plasmids encoding various forms of gp78. After 48 hours, cells were harvested and co-immuntoprecipitated with an anti-Myc tage. Anti-gp78 was used for detection. “R2M” indicates a mutation of two crucial residues in the RING finger. “T” indicates C terminal truncations at the indicated amino acids. ΔB is the mutation indicated above in FIG. 4 in the context of the full length gp78 and “Cue12M” indicates mutations in the Cue domain of gp78.
To confirm the significance of the Ube2G2 binding site in cells, a variety of mutations and truncations of full-length gp78 were tested for binding of co-expressed Myc-Ube2G2 (FIG. 19A). Cells were treated with the proteasome inhibitor MG132 in an attempt to equalize levels of the various forms of gp78.

ERAD substrate CD3-δ [1] = assay: Cycloheximide chase of CD3-δ in co-transfected cells; details: co-transfection with HA-CD3-δ
Procedure: as §1
(§2) To evaluate protein turnover in more detail, cycloheximide chase experiments were performed (FIGS. 20C and 20D). […] In agreement with FIG. 20A, CD3-δ degradation was accelerated with wild type gp78 (FIGS. 20C and 20D middle panels; effects of full-length forms of gp78 on CD3-δ from FIGS. 20C and 20D are quantified in FIG. 20E).

gp78 [2] = assay: Cycloheximide chase of gp78 in transfected cells; details: compared to wild type gp78
Procedure: as §1, §2

ERAD substrate CD3-δ [3] = assay: CD3-δ level in co-transfected cells by immunoblotting; details: co-transfection with CD3-δ; immunoblot
Procedure: as §1
FIG. 7 depicts the stabilization of CD3-δ protein in cells transfected with the G2BD, but not with the G2BD with amino acids 579-584 (of SEQ ID NO:2) mutated. HEK 293T cells were transfected with the ERAD substrate CD3-δ along with the indicated GFP fusions of gp78. The left and right sides are two separate experiments.
To test this, GFP fusions of either a minimal E2 binding domain (GFP-574-611) or a more extended region that includes the C-terminus of gp78 (GFP-574-643) were evaluated (FIG. 21A). […] To assess this further, the C-terminal region of gp78 was fused to the eight amino acid Flag tag. […] Mdm2 is a RING finger E3 for both itself and p53 that is neither an ERAD substrate nor known to utilize Ube2G2 as an E2. […] To establish with certainty that the effect observed with expression of the Ube2G2 binding site is a consequence of binding endogenous E2, and not due to other unanticipated effects, cells were co-transfected with increasing amounts of Ube2G2 (FIG. 21C, lanes 3 and 4). […] These findings clearly establish that the isolated E2 binding site has the potential to markedly alter ERAD of CD3-δ. To ensure the effect observed was not peculiar to one substrate, TCR-α was evaluated (FIG. 21D).

gp78 [4] = assay: gp78 ubiquitylation in transfected cells (IP anti-gp78, IB anti-ubiquitin); details: 50 μM MG132 eight hours
Procedure: FIGS. 20A-20E depict the requirement of multiple domains of gp78 to target itself and a heterologous ERAD substrate. (FIG. 20A) Cells were co-transfected with the indicated forms of full length gp78 together with CD3-δ and lysates analyzed by IB. (B) Cells were transfected with wild type and mutant gp78 plasmids as indicated. Samples were treated with 50 μM MG132 for eight hours, lysates IP'ed with anti-gp78 followed by […] with either antiubiquitin (upper) or anti-gp78 (lower). Arrow in upper panel indicates migration of unmodified gp78. (FIGS. 20C and 20D) Cells were co-transfected with HA-CD3-δ and wild type (WT) or mutant forms of gp78. Cells were treated with cycloheximide (CHX) as indicated. (FIG. 20E) Graphic representation of CD3-δ levels from FIGS. 20C and 20D (fall length gp78 transfections only), Cue-m1, 2 is the average of data shown in FIGS. 20C and 20D.
as §1, with “Lysis buffers were supplemented with Protease Inhibitor Cocktail (Sigma) and 10 mM iodoacetamide.” left out, “Treatment of cells with MG132 (Sigma) was at 50 μM for eight hr. Cycloheximnide was used at 50 μg/ml. All cells were collected at the end of the six hr chase.” left out
gp78 is degraded in a proteasome-dependent manner, and deletion of the entire cytoplasmic domain results in its stabilization. […] To determine the significance of the RING finger, Cue domain and Ube2G2 binding site on gp78 stability, mutations of each were evaluated within full-length gp78. […]

B1: gp78595: gp78 truncated after amino acid 595 of SEQ ID NO:2 (protein, listed as Homo sapiens)
chain: MPLLFLERFPWPSLRTYTGLSGLALLGTIISAYRALSQPEAGPGEPDQLTASLQPEPPAPARPSAGGPRARDVAQYLLSDSLFVWVLVNTACCVLMLVAKLIQCIVFGPLRVSERQHLKDKFWNFIFYKFIFIFGVLNVQTVEEVVMWCLWFAGLVFLHLMVQLCKDRFEYLSFSPTTPMSSHGRVLSLLVAMLLSCCGLAAVCSITGYTHGMHTLAFMAAESLLVTVRTAHVILRYVIHLWDLNHEGTWEGKGTYVYYTDFVMELTLLSLDLMHHIHMLLFGNIWLSMASLVIFMQLRYLFHEVQRRIRRHKNYLRVVGNMEARFAVATPEELAVNNDDCAICWDSMQAARKLPCGHLFHNSCLRSWLEQDTSCPTCRMSLNIADNNRVREEHQGENLDENLVPVAAAEGRPRLNQHNHFFHFDGSRIASWLPSFSVEVMHTTNILGITQASNSQLNAMAHQIQEMFPQVPYHLVLQDLQLTRSVEITTDNILEGRIQVPFPTQRSDSIRPALNSPVERPSSDQEEGETSAQTERVPLDLSPRLEETLDFGEVEVEPSEVEDFEARGSRFSKSADERQRMLVQRKDELLQQARK
Myc-Ube2G2
  E2 association of full-length gp78 forms with co-expressed Myc-Ube2G2: loss of E2 binding
ERAD substrate CD3-δ [1]
  effect on CD3-δ degradation: minimal stabilization of CD3-δ
gp78 [2]
  gp78 stability: stabilized gp78

B2: gp78611: gp78 truncated after residue 611 of SEQ ID NO:2 (protein, listed as Homo sapiens)
chain: MPLLFLERFPWPSLRTYTGLSGLALLGTIISAYRALSQPEAGPGEPDQLTASLQPEPPAPARPSAGGPRARDVAQYLLSDSLFVWVLVNTACCVLMLVAKLIQCIVFGPLRVSERQHLKDKFWNFIFYKFIFIFGVLNVQTVEEVVMWCLWFAGLVFLHLMVQLCKDRFEYLSFSPTTPMSSHGRVLSLLVAMLLSCCGLAAVCSITGYTHGMHTLAFMAAESLLVTVRTAHVILRYVIHLWDLNHEGTWEGKGTYVYYTDFVMELTLLSLDLMHHIHMLLFGNIWLSMASLVIFMQLRYLFHEVQRRIRRHKNYLRVVGNMEARFAVATPEELAVNNDDCAICWDSMQAARKLPCGHLFHNSCLRSWLEQDTSCPTCRMSLNIADNNRVREEHQGENLDENLVPVAAAEGRPRLNQHNHFFHFDGSRIASWLPSFSVEVMHTTNILGITQASNSQLNAMAHQIQEMFPQVPYHLVLQDLQLTRSVEITTDNILEGRIQVPFPTQRSDSIRPALNSPVERPSSDQEEGETSAQTERVPLDLSPRLEETLDFGEVEVEPSEVEDFEARGSRFSKSADERQRMLVQRKDELLQQARKRFLNKSSEDDAASESF
Myc-Ube2G2
  E2 association of full-length gp78 forms with co-expressed Myc-Ube2G2: retained E2 binding
ERAD substrate CD3-δ [1]
  effect on CD3-δ degradation: enhanced loss of CD3-δ
gp78 [2]
  gp78 stability: did not stabilize gp78

B3: wild type gp78: full-length wild type human gp78 ubiquitin ligase expressed in cells (protein, listed as Homo sapiens)
chain: MPLLFLERFPWPSLRTYTGLSGLALLGTIISAYRALSQPEAGPGEPDQLTASLQPEPPAPARPSAGGPRARDVAQYLLSDSLFVWVLVNTACCVLMLVAKLIQCIVFGPLRVSERQHLKDKFWNFIFYKFIFIFGVLNVQTVEEVVMWCLWFAGLVFLHLMVQLCKDRFEYLSFSPTTPMSSHGRVLSLLVAMLLSCCGLAAVCSITGYTHGMHTLAFMAAESLLVTVRTAHVILRYVIHLWDLNHEGTWEGKGTYVYYTDFVMELTLLSLDLMHHIHMLLFGNIWLSMASLVIFMQLRYLFHEVQRRIRRHKNYLRVVGNMEARFAVATPEELAVNNDDCAICWDSMQAARKLPCGHLFHNSCLRSWLEQDTSCPTCRMSLNIADNNRVREEHQGENLDENLVPVAAAEGRPRLNQHNHFFHFDGSRIASWLPSFSVEVMHTTNILGITQASNSQLNAMAHQIQEMFPQVPYHLVLQDLQLTRSVEITTDNILEGRIQVPFPTQRSDSIRPALNSPVERPSSDQEEGETSAQTERVPLDLSPRLEETLDFGEVEVEPSEVEDFEARGSRFSKSADERQRMLVQRKDELLQQARKRFLNKSSEDDAASESFLPLEGASSDPVTLRRRMLAAAAERRLQKQQTS
ERAD substrate CD3-δ [3]
  effect on CD3-δ level (stabilization): decreased CD3-δ levels
ERAD substrate CD3-δ [1]
  effect on CD3-δ degradation: accelerated
gp78 [4]
  gp78 ubiquitylation (ubiquitin immunoreactivity): ubiquitylation was observed
